Results as given in paper PMC4922666, “L-Tryptophan Production in Escherichia coli Improved by Weakening the Pta-AckA Pathway” (PLoS ONE, 2016).

B1: Pta (phosphate acetyltransferase; EC 2.3.1.8) (Escherichia coli K-12) (protein)
chain: SRIIMLIPTGTSVGLTSVSLGVIRAMERKGVRLSVFKPIAQPRTGGDAPDQTTTIVRANSSTTTAAEPLKMSYVEGLLSSNQKDVLMEEIVANYHANTKDAEVVLVEGLVPTRKHQFAQSLNYEIAKTLNAEIVFVMSQGTDTPEQLKERIELTRNSFGGAKNTNITGVIVNKLNAPVDEQGRTRPDLSEIFDDSSKAKVNNVDPAKLQESSPLPVLGAVPWSFDLIATRAIDMARHLNATIINEGDINTRRVKSVTFCARSIPHMLEHFRAGSLLVTSADRPDVLVAACLAAMNGVEIGALLLTGGYEMDARISKLCERAFATGLPVFMVNTNTWQTSLSLQSFNLEVPVDDHERIEKVQEYVANYINADWIESLTATSERSRRLSPPAFRYQLTELARKAGKRIVLPEGDEPRTVKAAAICAERGIATCVLLGNPAEINRVAASQGVELGAGIEIVDPEVVRESYVGRLVELRKNKGMTETVAREQLEDNVVLGTLMLEQDEVDGLVSGAVHTTANTIRPPLQLIKTAPGSSLVSSVFFMLLPEQVYVYGDCAINPDPTAEQLAEIAIQSADSAAAFGIEPRVAMLSYSTGTSGAGSDVEKVREATRLAQEKRPDLMIDGPLQYDAAVMADVAKSKAPNSPVAGRATVFIFPDLNTGNTTYKAVQRSADLISIGPMLQGMRKPVNDLSRGALVDDIVYTIALTAIQSAQQQ
notes: full length, untagged by primers (NdeI/HindIII in pET24a, native stop codon), expressed in E. coli BL21(DE3), DEAE-Sepharose purified, about 77 kDa; variant Pta1 (P69L) is natural in E. coli CCTCC M 2016009
B2: Pta (phosphate acetyltransferase; EC 2.3.1.8) (Escherichia coli K-12; P69L) (protein)
chain: SRIIMLIPTGTSVGLTSVSLGVIRAMERKGVRLSVFKPIAQPRTGGDAPDQTTTIVRANSSTTTAAELLKMSYVEGLLSSNQKDVLMEEIVANYHANTKDAEVVLVEGLVPTRKHQFAQSLNYEIAKTLNAEIVFVMSQGTDTPEQLKERIELTRNSFGGAKNTNITGVIVNKLNAPVDEQGRTRPDLSEIFDDSSKAKVNNVDPAKLQESSPLPVLGAVPWSFDLIATRAIDMARHLNATIINEGDINTRRVKSVTFCARSIPHMLEHFRAGSLLVTSADRPDVLVAACLAAMNGVEIGALLLTGGYEMDARISKLCERAFATGLPVFMVNTNTWQTSLSLQSFNLEVPVDDHERIEKVQEYVANYINADWIESLTATSERSRRLSPPAFRYQLTELARKAGKRIVLPEGDEPRTVKAAAICAERGIATCVLLGNPAEINRVAASQGVELGAGIEIVDPEVVRESYVGRLVELRKNKGMTETVAREQLEDNVVLGTLMLEQDEVDGLVSGAVHTTANTIRPPLQLIKTAPGSSLVSSVFFMLLPEQVYVYGDCAINPDPTAEQLAEIAIQSADSAAAFGIEPRVAMLSYSTGTSGAGSDVEKVREATRLAQEKRPDLMIDGPLQYDAAVMADVAKSKAPNSPVAGRATVFIFPDLNTGNTTYKAVQRSADLISIGPMLQGMRKPVNDLSRGALVDDIVYTIALTAIQSAQQQ
notes: as for B1

Substrate: CC(=O)SCCNC(=O)CCNC(=O)[C@H](O)C(C)(C)COP(=O)(O)OP(=O)(O)OC[C@H]1O[C@@H](n2cnc3c(N)ncnc32)[C@H](O)[C@@H]1OP(=O)(O)O
Assay: initial rates, Michaelis-Menten nonlinear regression
Assay type: biochemical, Escherichia coli
Details: 100 mM phosphate buffer pH 7.4, 25°C, acetyl-CoA 20-400 μmol/L
Text: initial rates, Michaelis-Menten nonlinear regression on Pta (phosphate acetyltransferase; EC 2.3.1.8)

[1] = natural variant Pta1 from E. coli CCTCC M 2016009

Protein	Km	kcat	kcat/Km	Km [1]	kcat [1]	kcat/Km [1]
B1	89 ± 6.3 µM	2380 ± 120 s⁻¹	2.7e+07 ± 3.6e+06 M⁻¹ s⁻¹			
B2				260 ± 13 µM	1480 ± 74 s⁻¹	5.7e+06 ± 500000 M⁻¹ s⁻¹
